Assay results as given in patent US20180118848A1 (Regeneron, published 2018).
Numbering of substitutions follows the chain as printed.

B1: H1H9538N (antibody, V domains shown)
VH: QVQLQESGPGLVKPSETLSLTCTVSGGSISSYYWSWIRQPPGKGLEWIGYIYYSGSTNYNPSLKSRVTISVDTSKNQFSLKLSSVTAADTAVYYCARKKLVFDYWGQGTLVTVSS
VL: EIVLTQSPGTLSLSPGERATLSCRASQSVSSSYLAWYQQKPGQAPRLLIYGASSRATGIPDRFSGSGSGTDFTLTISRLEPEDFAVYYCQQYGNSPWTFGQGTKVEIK
B2: H1H8808P (antibody, human IgG1, V domains shown)
VH: QVQLVESGGGVVQPGRSLRLSCVASGFTFSNYGIHWVRQAPGKGLEWVAVISDDGSFKFYADSVKGRFTISRDNSKNTLYLQMNSLRVEDSAVYHCAKWQHNWNDGGFDYWGQGTLVTVSS
VL: EIVLTQSPDTLSLSPGERATLSCRASQSLSSNYLAWYRQKPGQAPRLLIYGISSRATGIPDRFSGSGSGTDFTLTISRLEPEDFAVYYCQQYGSSPWTFGQGTKVEIK
notes: Human IgG1
B3: BSMUC16/CD3-005 (bispecific antibody, V domains shown)
VH 1: QVQLVESGGGLVKPGGSLRLSCAASGFTFSNYYMSWVRQAPGKGLEWISYISGRGSTIFYADSVKGRITISRDNAKNSLFLQMNSLRAEDTAVYFCVKDRGGYSPYWGQGTLVTVSS
VH 2: EVQLVESGGGLVQPGRSLRLSCAASGFTFDDYSMHWVRQAPGKGLEWVSGISWNSGSIGYADSVKGRFTISRDNAKNSLYLQMNSLRAEDTALYYCAKYGSGYGKFYYYGMDVWGQGTTVTVSS
VL: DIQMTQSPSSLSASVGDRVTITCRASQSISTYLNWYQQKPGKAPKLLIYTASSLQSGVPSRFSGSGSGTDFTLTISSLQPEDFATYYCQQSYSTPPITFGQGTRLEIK
notes: Anti-MUC16 HCVR of H1H8767P, anti-CD3 HCVR CD3-VH-G20, common light chain of H1H8767P; also called anti-MUC16xCD3 bispecific antibody with CD3-VH-G20 arm; REGN4019
B4: H1H8767P (antibody, human IgG1, V domains shown)
VH: B3 VH 1
VL: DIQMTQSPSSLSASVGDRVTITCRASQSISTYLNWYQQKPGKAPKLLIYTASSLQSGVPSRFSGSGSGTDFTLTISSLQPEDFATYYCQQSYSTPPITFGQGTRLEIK
notes: Human IgG1
B5: BSMUC16/CD3-002 (bispecific antibody, V domains shown)
VH 1: B3 VH 1
VH 2: B3 VH 2 with Y99D
VL: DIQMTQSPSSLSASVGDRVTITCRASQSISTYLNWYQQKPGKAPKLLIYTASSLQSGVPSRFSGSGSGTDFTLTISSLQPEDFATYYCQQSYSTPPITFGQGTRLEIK
notes: Anti-MUC16 HCVR of H1H8767P, anti-CD3 HCVR CD3-VH-G5, common light chain of H1H8767P; also called anti-MUC16xCD3 bispecific antibody with CD3-VH-G5 arm
B6: BSMUC16/CD3-001 (bispecific antibody, V domains shown)
VH 1: B3 VH 1
VH 2: B3 VH 2 with I58K, Y108H, M111L
VL: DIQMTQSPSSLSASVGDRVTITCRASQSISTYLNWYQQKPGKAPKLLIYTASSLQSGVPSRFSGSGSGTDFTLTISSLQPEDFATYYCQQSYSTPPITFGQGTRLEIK
notes: Anti-MUC16 HCVR of H1H8767P, anti-CD3 HCVR CD3-VH-G, common light chain of H1H8767P; also called anti-MUC16xCD3 bispecific antibody with CD3-VH-G arm

Assays:
[1] = molecular target: T1, human MUC16 (mucin 16) (human); assay: MSD ECL cell binding, RLU ratio OVCAR-3 vs SK-OV-3, 1.9 nM Ab
T1 construct: Endogenously expressed on human tumour cell lines; also called hMUC16
Procedure: (§1) The ability of anti-MUC16 antibodies to bind specifically to endogenously expressing MUC16 on the human ovarian carcinoma cell line (OVCAR-3) was evaluated via an electrochemiluminescence based detection assay (Meso Scale Discovery (MSD), Rockville, Md.). […] Detached cells were then washed once in 1×PBS supplemented with Ca²⁺/Mg²⁺ and counted (Cellometer Auto T4 cell counter, Nexcelom Bioscience, Lawrence, Mass.). Approximately 1.0×10⁴ cells were plated in MULTI-ARRAY 96-well carbon electrode plates (MSD) and incubated for 1 h at 37° C. […] Next, serial dilutions of anti-MUC16 or control antibodies (0.85 pM-50 nM) and no-antibody buffer controls were added to the plate-bound cells and incubated for 1 h at room temperature (RT). Plates were then washed to remove the unbound antibodies using an AquaMax2000 plate washer (MDS Analytical Technologies, Sunnyvale, Calif.). Plate-bound antibodies were detected with a SULFO-TAG™-conjugated anti-human kappa light chain antibody (Regeneron) or a SULFO-TAG™-conjugated anti-mouse IgG antibody (Jackson Immunoresearch, West Grove, Pa.) for 1 h at RT. Post-wash, plates were developed with Read Buffer (MSD) according to manufacturer's protocol and luminescent signals were recorded with a SECTOR Imager 6000 (MSD) instrument.
(§2) Luminescence intensity, measured in relative light units (RLU), for the two cell lines was recorded to indicate the binding intensity of each antibody.

[2] = molecular target: T1, human MUC16 (mucin 16); assay: MSD ECL cell binding, RLU ratio OVCAR-3 vs SK-OV-3, 16.7 nM Ab
Procedure: as §1, §2

[3] = molecular target: T1, human MUC16 (mucin 16); assay: MSD ECL cell binding, RLU ratio OVCAR-3 vs SK-OV-3, 16.7 nM Ab; NS = ratio <2.5-fold
Procedure: as §1, with “Plates were then washed to remove the unbound antibodies using an AquaMax2000 plate washer (MDS Analytical Technologies, Sunnyvale, Calif.).” left out
as §2

[4] = molecular target: T1, human MUC16 (mucin 16); assay: cell-based or functional assay
[5] = molecular target: T1, human MUC16 (mucin 16); assay: cell-based or functional assay; remark: listed apart in the source
[6] = molecular target: T1, human MUC16 (mucin 16); assay: FACS binding titration on PEO-1 (MUC16+) cells
Procedure: (§3) A. Briefly, flow cytometric analysis (i.e. fluorescence-activated cell sorting, or FACS) was utilized to determine binding of bispecific antibodies to Jurkat cells or cells expressing human MUC16, followed by detection with a phycoerythrin (PE)-labeled or APC-labeled anti-human IgG antibody. […] After incubation, the cells were washed twice with cold PBS containing 1% filtered FBS and a PE-conjugated or APC-conjugated anti-human secondary antibody was added to the cells and incubated for an additional 30 minutes. Wells containing no antibody or secondary only were also used as controls. After incubation, cells were washed, re-suspended in 200 μL cold PBS containing 1% filtered FBS and analyzed by flow cytometry on a BD FACS Canto II.
B. In separate experiments with analogous conditions to that described above, flow cytometric analysis (or FACS) was utilized to determine binding of select bispecific antibodies to Jurkat cells, PEO-1, OVCAR3-Luc and cynomolgus T cells. For the titration analysis, serial dilution of selected MUC16×CD3 bispecific antibodies, a first isotype control antibody (a human chimeric IgG4 antibody that binds an irrelevant human antigen with no cross-reactivity to human or cynomolgus CD3) and a second isotype control antibody (a human chimeric IgG4 antibody that binds an irrelevant human antigen with no cross-reactivity to human MUC16), ranging from 66.6 nM to 0.001 nM.
For FACS analysis, cells were gated by forward scatter height vs. forward scatter area for single events selection, followed by side and forward scatters. The EC50 for cell binding titration was determined using PRISM™ software (GraphPad Software, Inc., La Jolla, Calif.). Values were calculated using 4-parameter non-linear regression analysis. (Liu, J., et al. 2005, Biotechnol Letters 27:1821-1827).

[7] = molecular target: T1, human MUC16 (mucin 16); assay: FACS binding titration on OVCAR3-Luc (MUC16+) cells
Procedure: as §3
B. In separate experiments with analogous conditions to that described above, flow cytometric analysis (or FACS) was utilized to determine binding of select bispecific antibodies to Jurkat cells, PEO-1, OVCAR3-Luc and cynomolgus T cells. […]
For FACS analysis, cells were gated by forward scatter height vs. forward scatter area for single events selection, followed by side and forward scatters. The EC50 for cell binding titration was determined using PRISM™ software (GraphPad Software, Inc., La Jolla, Calif.). Values were calculated using 4-parameter non-linear regression analysis. […]

[8] = molecular target: T1, human MUC16 (mucin 16); assay: cell-based or functional assay; remark: listed apart in the source
[9] = molecular target: T1, human MUC16 (mucin 16); assay: FACS binding titration on OVCAR3 (MUC16+) cells

| Binder | Ratio anti-MUC16 Binding OVCAR-3/SK-OV-3 [1] [ratio] | Ratio anti-MUC16 Binding OVCAR-3/SK-OV-3 [2] [ratio] | Ratio anti-MUC16 Binding OVCAR-3/SK-OV-3 [3] [ratio] | PEO-1 cell depletion EC50 [4] [nM] | OVCAR3-Luc cell depletion EC50 [5] [nM] | EC50 [6] [nM] | EC50 [7] [nM] | OVCAR3 cell depletion EC50 [8] [nM] | EC50 [9] [nM] |
| --- | --- | --- | --- | --- | --- | --- | --- | --- | --- |
| B1 | 12 | 13 | – | – | – | – | – | – | – |
| B2 | 4 | – | < 2.5 | – | – | – | – | – | – |
| B3 | – | – | – | 0.0774 | 0.0516 | 2.63 | 1.47 | – | – |
| B4 | 4 | – | < 2.5 | – | – | – | – | – | – |
| B5 | – | – | – | 0.0675 | – | 3.13 | – | 0.0306 | 2.69 |
| B6 | – | – | – | 0.0256 | 0.0154 | 3.02 | 1.32 | 0.0224 | 1.2 |
